Data as given in patent US6875737.

Target: T cell receptor of the murine 2B4 T cell hybridoma
Assay: cell-based or functional assay

Row | IL-2 production in 2B4 cells at 0.4 µM KbP-S-MCC, against the maximum response obtained with the MCC peptide alone [fold] | IL-2 production in 2B4 cells: concentration needed for the maximum response, against 0.4 µM KbP-S-MCC (fold higher concentration) | Substance
1 | > 2 | – | KbP-S-MCC (Lys-boroPro coupled through a spacer linker to the N terminus of moth cytochrome C peptide 94-103) (from UniProt P00039 94-103)
2 | – | 10 | Moth cytochrome C peptide MCC 94-103 (from UniProt P00039 94-103)
